# Results as given in patent publication US20030186281A1, “Modified tetracycline repressor protein compositions and methods of use” (priority 2001, published 2003).
# Tested on: tet operator sequence
# Assay: β-galactosidase activity of a tetracycline-regulated promoter in transformed E. coli with revTetR, in the presence and absence of anhydrotetracycline (atc)
# Type: cell-based, Escherichia coli
# Conditions: for β-Galactosidase Activity, Cultured Without ATC: RevTetR isolate cultured in the absence of anhydrotetracycline (ATC); for β-Galactosidase Activity, Cultured With ATC: RevTetR isolate cultured in the presence of anhydrotetracycline (ATC)
# Procedure, shortened: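 TetR(BD) chimera mutants (TetR(B) residues 1–50, TetR(D) 51–208) expressed in E. coli regulating a tet operator-controlled lacZ. β-Galactosidase measured in Miller units at 28 °C and 37 °C with and without anhydrotetracycline; reported as percent of maximal expression without Tet repressor.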
Molecule,"β-Galactosidase Activity, Cultured Without ATC","β-Galactosidase Activity, Cultured With ATC"
"TetRrev29/25: revTetR(BD) G21- I22- E23- G24S (protein, Modified tetracycline repressor, revTetR(BD) G21- I22- E23- G24S) MSRLDKSKVINSALELLNEVSLTTRKLAQKLGVEQPTLYWHVKNKRALLDALAVEILARHHDYSLPAAGESWQSFLRNNAMSFRRALLRYRDGAKVHLGTRPDEKQYDTVETQLRFMTENGFSLRDGLYAISAVSHFTLGAVLEQQEHTAALTDRPAAPDENLPPLLREALQIMDSDDGEQAFLHGLESLIRGFEVQLTALLQIV",92.9327,3.112
"TetRrev29/27: revTetR(BD) L14E V20G (protein, Modified tetracycline repressor, revTetR(BD) L14E V20G) MSRLDKSKVINSAEELLNEGGIEGLTTRKLAQKLGVEQPTLYWHVKNKRALLDALAVEILARHHDYSLPAAGESWQSFLRNNAMSFRRALLRYRDGAKVHLGTRPDEKQYDTVETQLRFMTENGFSLRDGLYAISAVSHFTLGAVLEQQEHTAALTDRPAAPDENLPPLLREALQIMDSDDGEQAFLHGLESLIRGFEVQLTALLQIV",82.7579,9.453
"TetRrev29/35: revTetR(BD) L17S E23D (protein, Modified tetracycline repressor, revTetR(BD) L17S E23D) MSRLDKSKVINSAEELSNEGGIDGLTTRKLAQKLGVEQPTLYWHVKNKRALLDALAVEILARHHDYSLPAAGESWQSFLRNNAMSFRRALLRYRDGAKVHLGTRPDEKQYDTVETQLRFMTENGFSLRDGLYAISAVSHFTLGAVLEQQEHTAALTDRPAAPDENLPPLLREALQIMDSDDGEQAFLHGLESLIRGFEVQLTALLQIV",58.0891,2.1051
"TetRrev29/42: revTetR(BD) E19D G96R (protein, Modified tetracycline repressor, revTetR(BD) E19D G96R) MSRLDKSKVINSALDLLNEVGIEGLTTRKLAQKLGVEQPTLYWHVKNKRALLDALAVEILARHHDYSLPAAGESWQSFLRNNAMSFRRALLRYRDRAKVHLGTRPDEKQYDTVETQLRFMTENGFSLRDGLYAISAVSHFTLGAVLEQQEHTAALTDRPAAPDENLPPLLREALQIMDSDDGEQAFLHGLESLIRGFEVQLTALLQIV",96.187,11.861
"TetRrev29/52: revTetR(BD) L14V L17V N18K V20V G24G (protein, Modified tetracycline repressor, revTetR(BD) L14V L17V N18K V20V G24G) MSRLDKSKVINSAVELVKEVGIEGLTTRKLAQKLGVEQPTLYWHVKNKRALLDALAVEILARHHDYSLPAAGESWQSFLRNNAMSFRRALLRYRDGAKVHLGTRPDEKQYDTVETQLRFMTENGFSLRDGLYAISAVSHFTLGAVLEQQEHTAALTDRPAAPDENLPPLLREALQIMDSDDGEQAFLHGLESLIRGFEVQLTALLQIV",48.4964,3.3035
"TetRrevAtc4-1: revTetR(BD) A50S D53F A56G V57I H63Q (protein, Modified tetracycline repressor, revTetR(BD) A50S D53F A56G V57I H63Q) MSRLDKSKVINSALELLNEVGIEGLTTRKLAQKLGVEQPTLYWHVKNKRSLLFALGIEILARQHDYSLPAAGESWQSFLRNNAMSFRRALLRYRDGAKVHLGTRPDEKQYDTVETQLRFMTENGFSLRDGLYAISAVSHFTLGAVLEQQEHTAALTDRPAAPDENLPPLLREALQIMDSDDGEQAFLHGLESLIRGFEVQLTALLQIV",100.076,6.9011
